Test results taken from article PMC5098251 (Scientific Reports, 2016).
Positions count from the first letter of the chain named. Names and notes keep the numbering of the source.

B1: E09 IgG (antibody, V domains shown)
VH: QLQLQESGPGLVKPSETLSLTCTVSGASISANSYYGVWVRQSPGKGLEWVGSIAYRGNSNSGSTYYNPSLKSRATVSVDTSKNQVSLRLTSVTAADTALYYCARRQLLDDGTGYQWAAFDVWGQGTMVTVSS
VL: QSVLTQPPSVSEAPRQTVTISCSGNSFNIGRYPVNWYQQLPGKAPKLLIYYNNLRFSGVSDRFSGSKSGTSASLAIRDLLSEDEADYYCSTWDDTLKGWVFGGGTKVTVL
notes: VH: as the VH of m6 (E09); IgG heavy constant region; VL: as the VL of m6 (E09); light constant region; IgG; also called parent
B2: Ep6b_B01 IgG (antibody, V domains shown)
VH: B1 VH with T80S
VL: B1 VL with F27S, Y51S, N52D, S60P, S71T, K97E
notes: numbers count on: Kabat numbering; IgG heavy constant region; light constant region; IgG
B3: A07a IgG (antibody, V domains shown)
VH: B1 VH with S25P, S72G, V121N, G123D
VL: B1 VL with Y51S
notes: numbers count on: Kabat numbering; IgG heavy constant region; light constant region; IgG made from the scFv A07a
B4: R4aS IgG (antibody, V domains shown)
VH: B1 VH with S25P, V121N, G123D
VL: B1 VL with I29T, Y51S, F56L, K97E
notes: numbers count on: Kabat numbering; IgG heavy constant region; light constant region; IgG; also called antibody R4aS
B5: A07a scFv (scFv, V domains shown)
VH: B1 VH with S25P, S72G, V121N, G123D
VL: B1 VL with Y51S
B6: R4aS scFv (scFv, V domains shown)
VH: B1 VH with S25P, V121N, G123D
VL: B1 VL with I29T, Y51S, F56L, K97E
B7: E09 scFv with the single mutation VH S25P (scFv, V domains shown)
VH: B1 VH with S25P
VL: B1 VL
notes: numbers count on: Kabat numbering; scFv linker, as in m6; VL: as the VL of m6 (E09); Made by site-directed mutagenesis of E09 in pCantab6
B8: E09 scFv with the single mutation VL Y50S (scFv, V domains shown)
VH: B1 VH
VL: B1 VL with Y51S
notes: VH: as the VH of m6 (E09); scFv linker, as in m6; numbers count on: Kabat numbering; Made by site-directed mutagenesis of E09 in pCantab6
B9: anti-Fas receptor scFv E09 (scFv, V domains shown)
VH: B1 VH
VL: B1 VL
notes: VH of E09; scFv linker; VL of E09; also called parent; wild-type E09
B10: Ep6b_B01 scFv (scFv, V domains shown)
VH: B1 VH with T80S
VL: B1 VL with F27S, Y51S, N52D, S60P, S71T, K97E
notes: numbers count on: Kabat numbering; scFv linker, as in m6
B11: A03a scFv (scFv, V domains shown)
VH: B1 VH with S25P, K45R, Q106R, V121N, G123D
VL: B1 VL with P7S, I29T, Y51S, F56L, K97E
notes: numbers count on: Kabat numbering; scFv linker, as in m6; Selected by BeSD, round IV
B12: A05a scFv (scFv, V domains shown)
VH: B1 VH with G8S, L20I, S25P
VL: B1 VL with Y51H
notes: numbers count on: Kabat numbering; scFv linker, as in m6; Most abundant variant of round IV; the same as the Clade 2 consensus R4aH; also called R4aH
B13: A11b scFv (scFv, V domains shown)
VH: B1 VH with S25P, S132G
VL: B1 VL with I29T, Y51S, F56L, K97E
notes: as for B11
B14: A01b scFv (scFv, V domains shown)
VH: B1 VH with S25P, V39I, Q84R, S131P
VL: B1 VL with A13V, Y51H
notes: as for B11
B15: A09a scFv (scFv, V domains shown)
VH: B1 VH with S7P, V12T, S25P, N32D
VL: B1 VL with Y51H
notes: as for B11
B16: SNAP-E09 scFv-HA (scFv, V domains shown)
VH: B1 VH
VL: B1 VL
notes: VH: as the VH of m6 (E09); scFv linker, as in m6; VL: as the VL of m6 (E09); 47 kDa fusion; The parent vector pIVEX-SNAP-GFP holds the R30I mutant of the SNAP-tag; also called SNAP-scFv-HA; parent; source: in vitro translated (PURExpress), captured on BG-DNA-coated streptavidin beads; not shown: SNAP-tag, N-terminal, kept; HA, C-terminal, kept
B17: SNAP-A01b scFv-HA (scFv, V domains shown)
VH: B1 VH with S25P, V39I, Q84R, S131P
VL: B1 VL with A13V, Y51H
notes: numbers count on: Kabat numbering; scFv linker, as in m6; On-bead form of m10; not shown: SNAP-tag, N-terminal, kept; HA, C-terminal, kept
B18: SNAP-A03a scFv-HA (scFv, V domains shown)
VH: B1 VH with S25P, K45R, Q106R, V121N, G123D
VL: B1 VL with P7S, I29T, Y51S, F56L, K97E
notes: numbers count on: Kabat numbering; scFv linker, as in m6; On-bead form of m11; not shown: SNAP-tag, N-terminal, kept; HA, C-terminal, kept
B19: SNAP-Ep6b_B01 scFv-HA (scFv, V domains shown)
VH: B1 VH with T80S
VL: B1 VL with F27S, Y51S, N52D, S60P, S71T, K97E
notes: numbers count on: Kabat numbering; scFv linker, as in m6; not shown: SNAP-tag, N-terminal, kept; HA, C-terminal, kept
B20: SNAP-A09a scFv-HA (scFv, V domains shown)
VH: B1 VH with S7P, V12T, S25P, N32D
VL: B1 VL with Y51H
notes: numbers count on: Kabat numbering; scFv linker, as in m6; On-bead form of m13; not shown: SNAP-tag, N-terminal, kept; HA, C-terminal, kept
B21: SNAP-E09_Y58S scFv-HA (scFv, V domains shown)
VH: B1 VH with Y65S
VL: B1 VL
notes: whole scFv (VH, linker, VL) as in m3 (E09) with Y58S; not shown: SNAP-tag, N-terminal, kept; HA, C-terminal, kept
B22: SNAP-A11b scFv-HA (scFv, V domains shown)
VH: B1 VH with S25P, S132G
VL: B1 VL with I29T, Y51S, F56L, K97E
notes: numbers count on: Kabat numbering; scFv linker, as in m6; On-bead form of m14; not shown: SNAP-tag, N-terminal, kept; HA, C-terminal, kept
B23: SNAP-A07a scFv-HA (scFv, V domains shown)
VH: B1 VH with S25P, S72G, V121N, G123D
VL: B1 VL with Y51S
notes: numbers count on: Kabat numbering; scFv linker, as in m6; On-bead form of m15; not shown: SNAP-tag, N-terminal, kept; HA, C-terminal, kept

What follows are binders tested against T1, recombinant human FasR (Homo sapiens, UniProt P25445) (assay: SPR; BIAcore T100; low density IgG-coated chip surface, recombinant human FasR; 1:1 Langmuir model; at least in duplicate). Conditions: both partners purified.
T1 construct: Fas receptor (FasR, CD95), human, recombinant; The FasR of the BLI and SPR experiments; Details are in Supplementary Protocols 8-10; also called recombinant FasR
T1 sequence (P25445 26-335): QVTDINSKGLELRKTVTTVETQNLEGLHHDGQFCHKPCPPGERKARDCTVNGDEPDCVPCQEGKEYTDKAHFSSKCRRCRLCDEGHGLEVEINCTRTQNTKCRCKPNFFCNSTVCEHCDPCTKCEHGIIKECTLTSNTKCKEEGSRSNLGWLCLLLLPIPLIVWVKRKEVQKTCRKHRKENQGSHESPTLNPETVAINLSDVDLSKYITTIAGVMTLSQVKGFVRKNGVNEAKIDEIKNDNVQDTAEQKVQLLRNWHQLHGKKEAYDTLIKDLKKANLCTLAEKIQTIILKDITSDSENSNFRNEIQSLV
Work on B1 yielded a Kd of 13.7 nM, a koff of 0.00239 s⁻¹ and a kon of 174000 M⁻¹ s⁻¹.
With B2 the Kd was 0.06 nM, the koff was 4.4e-05 s⁻¹ and the kon was 746000 M⁻¹ s⁻¹.
For B3, the Kd was 0.29 nM, the koff was 6.7e-05 s⁻¹ and the kon was 230000 M⁻¹ s⁻¹.
Binder B4 has a Kd of 0.14 nM, a koff of 3.8e-05 s⁻¹ and a kon of 282000 M⁻¹ s⁻¹.

These binders were tested against T1, recombinant human FasR (assay: BLI; Octet Red384; recombinant human FasR; 1:1 Langmuir model; at least in duplicate; who was immobilised is not told (Supplementary Protocols 8-10)). Conditions: not given.
For B5, the Kd was 0.4 nM, the koff was 5.6e-05 s⁻¹ and the kon was 162000 M⁻¹ s⁻¹.
With B6 the Kd was 0.38 nM, the koff was 4.5e-05 s⁻¹ and the kon was 117000 M⁻¹ s⁻¹.

These binders were tested against T1, recombinant human FasR in the same assay as above. Conditions: both partners purified.
For B7, the “fold increase in affinity over the parent scFv E09 (Kd)” value was 4 fold.
With B8 the “fold increase in affinity over the parent scFv E09 (Kd)” value was 4 fold.

Target: T1, recombinant human FasR
Test: as above
Conditions: both partners purified
Remark: another data set of the same source
With B1 the Kd was 15.7 nM, the koff was 0.00266 s⁻¹ and the kon was 236000 M⁻¹ s⁻¹.
B9 showed a Kd of 7.6 nM, a koff of 0.000956 s⁻¹ and a kon of 236000 M⁻¹ s⁻¹.
Binder B10 has a Kd of 0.71 nM, a koff of 0.000125 s⁻¹ and a kon of 214000 M⁻¹ s⁻¹.
Work on B11 yielded a Kd of 1.09 nM, a koff of 0.000181 s⁻¹ and a kon of 240000 M⁻¹ s⁻¹.
B2 was tested, and the Kd was 0.23 nM, the koff was 5.9e-05 s⁻¹ and the kon was 402000 M⁻¹ s⁻¹.
For B3, the Kd was 1.02 nM, the koff was 0.000171 s⁻¹ and the kon was 277000 M⁻¹ s⁻¹.
For B12, the Kd was 2.89 nM, the koff was 0.00039 s⁻¹ and the kon was 153000 M⁻¹ s⁻¹.
Work on B13 yielded a Kd of 1.09 nM, a koff of 0.000111 s⁻¹ and a kon of 130000 M⁻¹ s⁻¹.
With B4 the Kd was 0.09 nM, the koff was 1.2e-05 s⁻¹ and the kon was 249000 M⁻¹ s⁻¹.
Work on B14 yielded a Kd of 2.15 nM, a koff of 0.000272 s⁻¹ and a kon of 168000 M⁻¹ s⁻¹.
Work on B15 yielded a Kd of 2.63 nM, a koff of 0.00029 s⁻¹ and a kon of 147000 M⁻¹ s⁻¹.

What follows are binders tested against T2, FasR-Fc (Fc-fused Fas receptor) (Homo sapiens, UniProt P25445) (assay: on-bead equilibrium titration read by flow cytometry (Bead Surface Display); apparent; Fas-Fc titrated against beads displaying SNAP-scFv-HA; normalised median fluorescence fitted to a saturation binding curve). Conditions: one partner purified.
T2 construct: Fas receptor (FasR, CD95), human; also called Fas-Fc; CD95; source: bought: R&D Systems
T2 sequence (P25445 26-173): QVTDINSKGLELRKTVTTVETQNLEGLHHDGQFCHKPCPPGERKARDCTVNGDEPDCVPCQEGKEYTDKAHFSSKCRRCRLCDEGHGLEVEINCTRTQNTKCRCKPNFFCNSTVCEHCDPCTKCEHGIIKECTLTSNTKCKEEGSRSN
B16 gave a Kd of 4.3 ± 0.3 nM.

Each binder was assayed against T2, FasR-Fc (Fc-fused Fas receptor) (assay: on-bead binding assay read by flow cytometry (Bead Surface Display); SNAP-scFv-HA made by in vitro transcription/translation and held on streptavidin beads through BG-DNA anchors; beads incubated 1 h at room temperature with FasR-Fc (1 nM unless stated; 1, 10 and 30 nM in Fig. 2B), then with DyLight488-labelled goat anti-Fc; 1.5% marvel in PBS, washes with PBS and 0.05% Tween 20). Conditions: one partner purified.
In the case of B17, the “fold increase of MFS over E09” value is reported as over 2 fold.
In the case of B18, the “fold increase of MFS over E09” value is reported as over 2 fold.
For B19, the “fold MFS over E09_Y58S (1 nM antigen)” value was 8.4 fold and the “fold MFS over E09_Y58S (30 nM antigen)” value was 1.8 fold.
In the case of B20, the “fold increase of MFS over E09” value is reported as over 2 fold.
B21: binds.
For B16, the “fold signal increase over the background (FasR at 1 nM)” value was over 1250 fold.
B22 was tested, and the “fold increase of MFS over E09” value was over 2 fold.
B23 was tested, and the “fold increase of MFS over E09” value was over 2 fold.
